# T1: human NRP2 variant 2 (hNRP2), untagged, on Expi293 cells (Human, UniProt O60462 23-931)
# T1 construct: Transcript NM_003872 / NP_003863.2; also called Expi293-hNRP2 clonal cells; Human NRP2a (version 2)
# T1 sequence: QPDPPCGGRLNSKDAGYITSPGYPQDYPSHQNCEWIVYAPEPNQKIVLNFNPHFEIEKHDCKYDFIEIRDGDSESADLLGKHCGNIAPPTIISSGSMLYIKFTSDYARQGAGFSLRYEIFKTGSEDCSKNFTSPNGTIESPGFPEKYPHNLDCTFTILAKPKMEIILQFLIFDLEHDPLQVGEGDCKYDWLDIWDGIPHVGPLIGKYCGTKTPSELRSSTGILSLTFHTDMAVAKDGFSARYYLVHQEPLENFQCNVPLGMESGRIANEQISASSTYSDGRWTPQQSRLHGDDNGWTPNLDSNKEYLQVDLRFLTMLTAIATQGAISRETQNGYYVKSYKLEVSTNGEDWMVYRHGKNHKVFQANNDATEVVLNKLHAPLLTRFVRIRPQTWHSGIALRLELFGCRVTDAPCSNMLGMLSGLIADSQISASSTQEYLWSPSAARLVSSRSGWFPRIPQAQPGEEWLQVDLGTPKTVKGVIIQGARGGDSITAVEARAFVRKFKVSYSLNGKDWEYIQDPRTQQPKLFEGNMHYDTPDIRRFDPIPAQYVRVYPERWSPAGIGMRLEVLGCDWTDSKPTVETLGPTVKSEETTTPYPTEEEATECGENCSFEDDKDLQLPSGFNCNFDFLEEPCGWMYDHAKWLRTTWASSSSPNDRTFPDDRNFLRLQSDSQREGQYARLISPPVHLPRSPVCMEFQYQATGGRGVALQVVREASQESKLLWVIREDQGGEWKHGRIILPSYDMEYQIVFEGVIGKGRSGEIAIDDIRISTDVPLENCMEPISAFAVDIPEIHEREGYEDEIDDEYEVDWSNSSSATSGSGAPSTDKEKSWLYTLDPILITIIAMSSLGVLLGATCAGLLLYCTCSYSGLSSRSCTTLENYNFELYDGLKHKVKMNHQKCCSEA
# B1: aNRP2-10v10 (antibody, V domains shown)
# VH: EVQLVQSGAEVKKPGATVKISCKVSGFNIKDYYVHWVQQAPGKGLEWMGRIDVEDDETKYAPKFQGRVTITADTSTDTAYMELSSLRSEDTAVYYCATPIYGAREAWFAYWGQGTLVTVSS
# VL: DIQMTQSPSSLSASVGDRVTITCTASSSVSSSYLHWYQQKPGKAPKLLIYRTSNLASGVPSRFSGSGSGTDFTLTISSLQPEDFATYYCHQYYRSPPTFGGGTKVEIK
# Molecular target: T1, human NRP2 variant 2 (hNRP2), untagged, …
# Assay: flow cytometry on Expi293-hNRP2 clonal cells
# Protocol: Expi293-hNRP2 clonal cells were collected by centrifugation at 300 g for 5 minutes, and washed twice by DPBS (with calcium and magnesium, ThermoFisher Cat #14040133). Washed cells were added to a 96-well V-bottom plate (ThermoFisher Cat #1424572) at 100,000 cells/well in […] of DPBS added with Zombie Violet viability stain (Biolegend Cat #423114, diluted at 1:500). From this step on, cells were protected from light. Cells were kept at room temperature for 10 min and pelleted down at 300 g for 5 minutes at 4° C. Supernatants containing Zombie Violet were discarded, and without washing, 30 uL of antibodies diluted in the flow wash buffer (FWB, DPBS plus 2% FBS and 0.1% sodium azide to inhibit receptor internalization) were added to the cells. For anti-NRP2 antibody staining on Expi293-hNRP2 clonal cells, in-house human anti-NRP2 antibodies were tested at final concentrations of 0.006-100 nM at 4-fold dilutions. […] Binding was allowed to proceed on ice for 40-60 minutes. Cells were then pelleted at 300 g for 5 minutes at 4° C., supernatants removed, and cells washed twice by adding 150 μL of FWB and centrifuging the cells again in the same conditions. To detect a-NRP2 binding on the cell surface, Cy3-conjugated goat anti-human IgG Fc (Jackson ImmunoResearch Cat #109165098) was added to the cells at a final concentration of 3 μg/mL in 30 μL of FWB. After 30-40 minutes of incubation on ice, cells were pelleted at 300 g for 5 minutes at 4° C. and supernatants removed, and the cells were washed twice as described previously. Cells were then resuspended in FWB before acquisition on the Cytoflex. Gains were set based on staining controls. Cells were collected with typically more than 10,000 events. Cells were then analyzed on FlowJo analysis software by excluding dead cells and gating singlets. The statistical analysis was performed using GraphPad Prism. A four-parameter variable-slope curve was fitted to the data ([agonist] vs. response) using non-linear regression, and the EC₅₀ and r2 for each curve was determined.
# The EC₅₀ of four anti-NRP2 antibodies directed against different domains of NRP2, were measured for binding to Expi293-hNRP2 clonal cells (see Table E1 and FIG. 3).
binder,measurement,value
B1,EC50,0.09 nM

# Source: patent US20210163606A1 (ATYR PHARMA, published 2021)
